Reference: patent publication US20130227716A1 (University of Washington, published 2013)

T1: COI1/ASK1 complex (full-length Arabidopsis thaliana COI1 co-expressed with ASK1) (Arabidopsis thaliana, UniProt Q39255 1-160)
T1 construct: mature; Purified from Hi5 insect cells; co-purifies with Ins(1,2,4,5,6)P5 cofactor; also called COI/ASK1; untreated COI1
T1 sequence 1: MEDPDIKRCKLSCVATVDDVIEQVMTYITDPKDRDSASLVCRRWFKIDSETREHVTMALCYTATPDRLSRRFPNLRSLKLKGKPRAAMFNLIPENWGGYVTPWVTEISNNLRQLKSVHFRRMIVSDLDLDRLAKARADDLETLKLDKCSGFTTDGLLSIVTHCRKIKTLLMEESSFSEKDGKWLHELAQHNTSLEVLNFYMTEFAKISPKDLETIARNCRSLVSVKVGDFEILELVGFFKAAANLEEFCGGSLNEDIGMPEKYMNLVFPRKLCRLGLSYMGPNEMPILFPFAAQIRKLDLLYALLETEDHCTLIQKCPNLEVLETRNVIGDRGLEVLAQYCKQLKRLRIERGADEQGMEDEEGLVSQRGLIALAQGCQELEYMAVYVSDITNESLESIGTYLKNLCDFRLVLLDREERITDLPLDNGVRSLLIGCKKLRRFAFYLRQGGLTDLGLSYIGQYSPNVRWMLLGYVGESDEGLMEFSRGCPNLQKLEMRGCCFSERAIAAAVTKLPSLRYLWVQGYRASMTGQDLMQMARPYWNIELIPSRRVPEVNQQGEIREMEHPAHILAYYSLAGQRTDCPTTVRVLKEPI
T1 sequence 2: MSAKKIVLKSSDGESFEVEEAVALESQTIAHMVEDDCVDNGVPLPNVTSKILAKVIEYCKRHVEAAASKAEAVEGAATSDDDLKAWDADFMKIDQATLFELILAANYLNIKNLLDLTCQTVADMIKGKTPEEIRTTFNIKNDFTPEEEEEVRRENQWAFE

T2: Arabidopsis thaliana COI1 (Arabidopsis thaliana, UniProt O04197 1-592)
T2 construct: also called wild-type COI1
T2 sequence: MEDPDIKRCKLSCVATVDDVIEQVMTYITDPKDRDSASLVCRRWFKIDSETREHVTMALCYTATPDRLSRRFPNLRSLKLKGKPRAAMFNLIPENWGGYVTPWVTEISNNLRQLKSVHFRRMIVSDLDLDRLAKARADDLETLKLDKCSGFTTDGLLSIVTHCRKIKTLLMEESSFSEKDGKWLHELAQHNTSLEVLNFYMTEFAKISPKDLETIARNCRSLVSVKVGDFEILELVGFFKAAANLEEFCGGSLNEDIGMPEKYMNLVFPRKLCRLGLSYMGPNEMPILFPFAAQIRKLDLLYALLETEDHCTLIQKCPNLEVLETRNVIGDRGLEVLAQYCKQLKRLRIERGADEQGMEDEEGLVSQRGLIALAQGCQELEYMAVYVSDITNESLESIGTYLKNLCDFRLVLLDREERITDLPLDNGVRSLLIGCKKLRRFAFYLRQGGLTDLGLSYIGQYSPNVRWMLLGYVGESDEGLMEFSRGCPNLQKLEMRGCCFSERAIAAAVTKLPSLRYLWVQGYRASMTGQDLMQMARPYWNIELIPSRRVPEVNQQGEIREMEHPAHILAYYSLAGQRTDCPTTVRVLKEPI


How the values were obtained:
[1] = biological target: COI1/ASK1 complex (full-length Arabidopsis thaliana COI1 co-expressed with ASK1) (Arabidopsis thaliana) (UniProt Q39255); test: cell-based or functional assay
[2] = biological target: T1, COI1/ASK1 complex (full-length …); test: 3H-coronatine radioligand binding with COI1/ASK1 and synthetic peptide
[3] = biological target: T1, COI1/ASK1 complex (full-length …); test: saturation radioligand binding (3H-coronatine) with COI1/ASK1 and the synthetic peptide
[4] = biological target: T2, Arabidopsis thaliana COI1; test: crystal structure
Protocol: Diffraction quality crystals were obtained by the micro-seeding method at 4° C. The crystals all contained eight copies of the complex in the asymmetric unit. The data sets were collected at the Advanced Light Source in Lawrence Berkeley National Laboratory as well as the GM/CA-CAT 23 ID-B beamline at the Advanced Photon Source in Argonne National Laboratory using crystals flash-frozen in the crystallization buffers supplemented with 15-20% ethylene glycol at −170° C. Reflection data were indexed, integrated, and scaled with the HKL2000 package. All crystal structures were solved by molecular replacement using the program Phaser and the TIR1/ASK1 structure as search model. The structural models were manually built in the program O and refined using CNS and PHENIX.

[5] = biological target: T1, COI1/ASK1 complex (full-length …); test: cell-based or functional assay

Molecule | binding result [2] | further results
full-length JAZ6 (from UniProt Q9C9E3 1-269) | – | KD of 3H-coronatine saturation binding to COI1/ASK1 in the presence of JAZ6 [1]: 0.048 µM; KD of 3H-coronatine saturation binding to the COI1/JAZ6 complex [1]: 0.068 µM
QQHQVVERIARRASLHRFFAKRKDRV [JAZ6 + 10 extension] | no binding | –
ELPIARRASLHRFLEKRKDRV (also called JAZ1 +5 extension peptide; JAZ1 degron +5 peptide) [JAZ1 + 5 extension] | – | Kd [3]: 0.108 µM
AAAAARRASLHRFLEKRKDRV [JAZ1 + polyA extension] | no binding | –
ASK1 (other, Arabidopsis thaliana, UniProt Q39255 1-160, looked up, mature) MSAKKIVLKSSDGESFEVEEAVALESQTIAHMVEDDCVDNGVPLPNVTSKILAKVIEYCKRHVEAAASKAEAVEGAATSDDDLKAWDADFMKIDQATLFELILAANYLNIKNLLDLTCQTVADMIKGKTPEEIRTTFNIKNDFTPEEEEEVRRENQWAFE | – | binding result [4]: binds
ELPIARRASLHRFLEKRKDRVTSKAPY (also called JAZ1-extension +5+PY; JAZ1 +5 extension with the six C-terminal residues added back on) [JAZ1 + 6 extension + PY motif] | binds | –
LPIARRASLHRFLEKRKDRV [JAZ1 + 4 extension] | binds | –
YQKASMKRSLHSFLQKRSLRI [JAZ7 + 5 extension] | no binding | –
full-length JAZ1 (other) MSSSMECSEFVGSRRFTGKKPSFSQTCSRLSQYLKENGSFGDLSLGMACKPDVNGTLGNSRQPTTTMSLFPCEASNMDSMVQDVKPTNLFPRQPSFSSSSSSLPKEDVLKMTQTTRSVKPESQTAPLTIFYAGQVIVFNDFSAEKAKEVINLASKGTANSLAKNQTDIRSNIATIANQVPHPRKTTTQEPIQSSPTPLTELPIARRASLHRFLEKRKDRVTSKAPYQLCDPAKASSNPQTTGNMSWLGLAAEI | – | KD of 3H-coronatine saturation binding to COI1/ASK1 in the presence of JAZ1 [5]: 0.068 µM; KD of 3H-coronatine saturation binding to the COI1/JAZ1 complex [5]: 0.048 µM
VERIARRASLHRFLEKRKDRV [JAZ1 + 5 extension from JAZ6] | no binding | –
VERIARRASLHRFFAKRKDRV [JAZ6 + 5 extension] | no binding | –
